The values below come from ChEMBL document CHEMBL2074123, “Expression cloning of a rat liver Na(+)-independent organic anion transporter” (Proc Natl Acad Sci U S A, 1994).

In general, Km refers to the concentration of substrate that gives half-maximal velocity.

Substrate in the data set: O=C1OC(c2ccc(O)c(S(=O)(=O)O)c2)(c2ccc(O)c(S(=O)(=O)O)c2)c2c(Br)c(Br)c(Br)c(Br)c21
The experiment in a line: TP_TRANSPORTER: uptake (no BSA) in Xenopus laevis oocytes. The format is functional, cell-based, Oocyte.

B1: Solute carrier organic anion transporter family member 1A1 (Rattus norvegicus) (protein)
chain: MEETEKKIATQEGRLFSKMKVFLLSLTCACLTKSLSGVYMNSMLTQIERQFDISTSVAGLINGSFEIGNLFFIVFVSYFGTKLHRPVVIGIGCVIMGLGCLLMSLPHFFMGRYEYETTISPTGNLSSNSFLCMENRTQTLKPTQDPAECVKEMKSLMWICVMVGNIIRGIGETPIVPLGISYIEDFAKSENSPLYIGILEMGKVAGPIFGLLLGSYCAQIYVDIGSVNTDDLTITPSDTRWVGAWWIGFLVCAGVNILTSIPFFFLPKALPKKGQQENVAVTKDGKVEKYGGQAREENLGITKDFLTFMKRLFCNPIYMLFILTSVLQVNGFINKFTFLPKYLEQQYGKSTAEAIFLIGVYSLPPICLGYLIGGFIMKKFKITVKKAAYLAFCLSVFEYLLFLCHFMLTCDNAAVAGLTTSYKGVQHQLHVESKVLADCNTRCSCSTNTWDPVCGDNGVAYMSACLAGCKKFVGTGTNMVFQDCSCIQSLGNSSAVLGLCKKGPECANRLQYFLILTIIISFIYSLTAIPGYMVFLRCVKSEEKSLGVGLHTFCIRVFAGIPAPVYFGALIDRTCLHWGTLKCGQRGACRMYDINSFRHIYLGLPIALRGSSYLPAFFILILMRKFQFPGDIDSSATDHTEMMLGEKESEHTDVHGSPQVENDGELKTKL
In the case of B1, the Km came out at 1.5 µM.
